To fix the notation:
B1: R166.G8 (antibody, V domains shown)
VH: LEQSGGGAEGGLVKPGGSLELCCKASGFSLSNIYWICWVRQAPGTGLEWIGCINSGSNSYTYYANWVDGRFTLSRDIDQSTGCLQLNSLTAADTAMYYCARDRDAADTSDWSLNFWGQGTLVTVSS
VL: QVLTQTPSSVSAAVGGTVTISCQSSDSVNNDNWLAWYQQKPGQPPKLLIYQASKLASGVPSRFSGSGSGTQFTLTISGVQCDDAANYYCQGTGYSSTWYVAFGGGTEVVVKG
B2: R166.C5 (antibody, V domains shown)
VH: QSVEESGGRLVTPGTPLTLTCTVSGFSLRNFAMSWVRQAPGKGLEWIGIIYSGGTRDYATWAKGRFTISKTSTTVDLKMTSPTTEDTATYFCARDRSPDYSAAFLLWGQGTLVTVSS
VL: IVMTQTPSSKSVPVGDTVTINCQASESVYSNNHLAWFQQKPGQPPKLLIYSASTLESGVPSRFKGSGSGTQFTLTISGVQCDDAATYYCAGYKSSDTDGTSFGGGTEVVVKG
B3: R166.H8 (antibody, V domains shown)
VH: QSVEESGGRLVTPGTPLTLTCTVSGFSLSSFAMSWVRQAPGKGLEWIGIIYATGGTRDYATWAAGRFTISKTSTTVGLKMTSPTTEDTATYFCARDRSPDYSAAFNLWGQGTLVTVSS
VL: IVMTQTPSSKSVPVGDTVTINCQASESVYSNNHLAWFQQKPGQPPKLLIYSASTLESGVPSRFKGSGSGTQFTLTISGVQCDDAATYYCAGYKSSDTDGTSFGGGTEVVVKG
B4: R166.E7 (antibody, V domains shown)
VH: QSVEESGGRLVTPGTPLTLTCTVSGFSLSSFAMSWVRQAPGKGLEWIGIIYTGGTRDYATWAKGRFTISKTSTTVDLKMTSPTTEDTATYFCARDRSPDYSAAFNLWGQGTLVTVSS
VL: IVMTQTPSSKSVPVGDTVTINCQASESVYSNNHLAWFQQKPGQPPKLLIYSASTLESGVPSRFKGSGSGTQFTLTISGVQCDDAATYYCAGYKSSDTDGTSFGGGTEVVVKG
B5: R166.H9 (antibody, V domains shown)
VH: QSLEESGGRLVTPGTPLTLTCTASGFSLNNYNMIWVRQAPGEGLEWIGMIGDGDDAAWYASWAKGRFTISKTSTTVDLEVTSLTTEDTAIYFCARYLSFTRLDLWGQGTLVTVSS
VL: AVLTQTPSPVSAAVGGTVTINCQSSQSVYHNNWLAWYQQKPGQPPKLLIYGAATLASGVPSRFKGSGSGTQFTFTITDVQCDDVGTYYCAGVYNDDSENAFGGGTEVVVKG

This assay addresses camel-derived heavy-chain antibodies on camel PBMC cells. Kind of assay: flow cytometry, PE-labeled antibody on PBMC of a non-immunized camel. On the technique in general: A flow cytometer gives signals particle by particle.
B1 had a proportion of PBMC cells specific for heavy-chain antibodies of 17.2%.
Molecule B2 displayed a proportion of PBMC cells specific for heavy-chain antibodies of 22.8%.
To B3 belongs 23.6%.
With B4 the figure was 23.3%; with B5, 24.2%.
